According to paper PMC5733156, “Heterologous Secretory Expression and Characterization of Dimerized Bone Morphogenetic Protein 2 in Bacillus subtilis” (BioMed Research International, 2017):

Biological target: the molecule itself
Assay: native gel or EMSA; 12% native PAGE in nonreducing condition (without SDS and β-mercaptoethanol), samples not boiled; monomer chain to dimer (the paper calls it disulfide linked)

B1: recombinant human Bone Morphogenetic Protein 2 (rhBMP2) monomer, from pHT43-BMP2-M (ligand, UniProt P12643 283-396, looked up)
chain: QAKHKQRKRLKSSCKRHPLYVDFSDVGWNDWIVAPPGYHAFYCHGECPFPLADHLNSTNHAIVQTLVNSVNSKIPKACCVPTELSAISMLYLDENEKVVLKNYQDMVVEGCGCR
notes: Bone Morphogenetic Protein 2, human, mature domain / mature peptide (~399 bp amplicon with sites and His-tag); RBMP2-M, translated, gives ...EGCGCR then GRG then HHHHHH and stop, so three residues (GRG) may lie between BMP2 and the His-tag; also called rhBMP (monomer); source: B. subtilis SCK6, secreted into the culture supernatant (pHT43, amyQ signal peptide); purified by FPLC (Resource Q)
For B1, the “stoichiometry N” value was 2.
